Laboratory results as given in patent US9713649.

Molecular target: Prostate specific membrane antigen (PSMA) (UniProt Q04609)
Assay: competitive binding on LNCaP or PC3-PIP cells; displacement of 12 nM N-[N-[(S)-1,3-dicarboxypropyl]carbamoyl]-S-[3H]-methyl-L-cysteine, scintillation counting

Prostate specific membrane antigen (PSMA), sequence (Q04609 whole entry): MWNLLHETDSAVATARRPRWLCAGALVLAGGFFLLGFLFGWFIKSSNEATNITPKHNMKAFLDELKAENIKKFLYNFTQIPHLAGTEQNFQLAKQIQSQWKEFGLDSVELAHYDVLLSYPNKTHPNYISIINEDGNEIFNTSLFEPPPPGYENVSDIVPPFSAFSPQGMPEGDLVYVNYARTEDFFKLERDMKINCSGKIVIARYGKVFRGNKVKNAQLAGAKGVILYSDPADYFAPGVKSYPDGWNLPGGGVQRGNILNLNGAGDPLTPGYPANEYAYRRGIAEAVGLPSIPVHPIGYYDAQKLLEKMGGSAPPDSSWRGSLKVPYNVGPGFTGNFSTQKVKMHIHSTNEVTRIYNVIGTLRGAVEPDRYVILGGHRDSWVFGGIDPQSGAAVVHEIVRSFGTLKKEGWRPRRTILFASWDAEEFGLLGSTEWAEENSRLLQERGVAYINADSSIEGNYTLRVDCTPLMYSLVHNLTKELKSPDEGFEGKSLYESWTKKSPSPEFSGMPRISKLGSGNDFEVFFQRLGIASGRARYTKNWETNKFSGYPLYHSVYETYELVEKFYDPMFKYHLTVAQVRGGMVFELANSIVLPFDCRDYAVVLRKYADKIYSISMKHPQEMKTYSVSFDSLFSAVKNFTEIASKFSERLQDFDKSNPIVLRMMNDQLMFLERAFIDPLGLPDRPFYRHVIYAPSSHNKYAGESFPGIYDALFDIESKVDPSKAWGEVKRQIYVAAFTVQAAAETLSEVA

IC50: 2.2 nM
Substance: ZJ-MCC-Ahx-dEdEdEG (Compound 1) (peptide)
